From the DeepSol protein solubility set

Test: soluble on expression in E. coli; label from the status in PepcDB or PDB records
For “MKAAAKRISDGVYWTGVLDWDLRNYHGYTLQGTTYNAYLVCGDEGVALIDNSYPGTFDELMARVEDALQQVGMERVDYIIQNHVEKDHSGVLVELHRRFPEAPIYCTEVAVKGLLKHYPSLREAEFMTVKTGDVLDLGGKTLTFLETPLLHWPDSMFTLLDEDGILFSNDAFGQHLCCPQRLDREIPEYILMDAARKFYANLITPLSKLVLKKFDEVKELGLLERIQMIAPSHGQIWTDPMKIIEAYTGWATGMVDERVTVIYDTMHGSTRKMAHAIAEGAMSEGVDVRVYCLHEDDRSEIVKDILESGAIALGAPTIYDEPYPSVGDLLMYLRGLKFNRTLTRKALVFGSMGGNGGATGTMKELLAEAGFDVACEEEVYYVPTGDELDACFEAGRKLAAEIRR”, the “soluble on expression in E. coli” value was “soluble”. For “MSLNVVNSIFSKLSIAPMIDWTNSPFRTLMRLLAPNALLYTEMQTTGAVQNNPDRALYFNSVEHPLAIQLGGADKSALVKCAIIAEQKGFNEINLNLGCPSDKVQAGRFGACLMKEPEHVADCIRAIKQVVGIPVTAKTRIGIDNQDSYEFFRSFSLHLVEAGCDKLIIHARKAWLNGLNPKQNRTIPPVNYDYVYELKKEIPHIFITINGNILTVEEINNHLKHVDGVMLGRLACDNPYQIAEIHQALYPEFIKIKRSQLLMNYLDYWFDQSRANLSLSILVKPLFNLAFGLPGAKHWKKKLMNIIQEKNTSGFSELIQYLLNLEAINQVEEGHHHHHH”, the “soluble on expression in E. coli” value was “soluble”. For “SMTTTTTTISQHNFYGAGDSETCISIIENLKEEYGLFVWPCSVILAEYVWQHRSRFRDSSILELGAGTSLPGLVAAKVGANVTLTDDATKPEVLDNMRRVCELNKLNCNVLGLTWGVWDAPILDLRPNIILGADVLYDSSGSFHLFLFWVLAFSFSPCE”, the “soluble on expression in E. coli” value was “soluble”. In the case of “MGSDKIHHHHHHMLDSSSGNAPDTHAAVDSAVLVSLDLNDSDSAENLEELRQLAASDRLAISAVVLGKRLRPDPATFAGSGKVDEIMGAVEQTGASLVIFNHDLSPAQQRNLEQRLRRRVIDRTSLILDIFAQRAKSHEGKLQVELAQLEHLATRLVRGWTHLERQKGGIGLRGPGETQLETDRRLLGKRVKVLKEKLAKFERQRALQRRARRRAQVMSVSLVGYTNAGKSTLFNRLTRGHTYVADQLFATLDATTRKLFIADRGPLVLSDTVGFIRDLPHTLVAAFRATLEETVQADLLLHVVDTSSSNRSEQIDEVNKVLKEIGADRIPQILVLNKTDLVDLPASSPGYQRDEYGRIVQVRLSAKTGEGLEFINLALSEALGERAALREPDNQSEAQDITSGYH”, the “soluble on expression in E. coli” value is reported as “not soluble”. In the case of “HPWQRASVWAEILPSILFRTDFTNAQDEPDEMSSKLHRRSSFQPAFQVGVAYRVSDHMGIEAHAGYQLGEAVYHLMEETSTWSIIKKRATVPYRGFEFAVGLQFYPFR”, the “soluble on expression in E. coli” value is reported as “not soluble”. With “SNAMMIKASTNEFRFCFKQMNKSQHELVLGWIHQPHINEWLHGDGLSNTIKDLHEFLNDGKPWATHWIAYDNEIPFAYLITSEIEKSEEYPDGAVTLDLFICRLDYIGKGLSVQMIHEFILSQFSDTKIVLINPEISNERAVHVYKKAGFEIIGEFIASWHPVPHYKMKLCIEDLKKQRLSA” the “soluble on expression in E. coli” value was “soluble”. For “LTEKQKRFADEYIKCGNATEAARLAGYSSKTANRIATENLSKPVIKGYIDKVLSELEEKRVMGYTEAMQLFTEIARGEMEEEVIVSNGDGFSVVTKSADINQRVSALKEIVKRHVAGGRDKLQEELIQAQIDKLRADT”, the “soluble on expression in E. coli” value was “not soluble”. In the case of “MKVIKSNKVTNKFKVSILISTYNKEKFIENTLNNILAQTMNKNDFELIIVDDCSTDNTLDIISKKIESFSNYQFVQLDENSGTPAKPRNLSIDLSKGKYIMFVDGDDWLPSDALENLYTLLKSNKTDYATGLTKYVYSDRIARSGVALSKIAYNKIGLKNFRKSFYHLAPAGRMMKSSVIKKNNIRFPEMIFGEDLQFFAEVFFNTKNISTTQDVVYCANRYDENISLVKSEASTVLNRIKWQNEAYRYLTKKYKNNKIFANLLYRIINKDILEGKFYKKGFIKEIDTLLPVFQDILNTIDNDFNSLDYADDTLNQHALTLIKNGDKEEIIDFVNFYLKKDEKPLYLSNDKYYYVYKENKYKKRMHIILQKIIKKDENIFLKLYSKNSELKYLEIKNRKDPTNYTVLEIKKHLFKTGEYTVQFKANELSKGKLALTVLDKDLNGAAIKSGMQFDFYETVNGNLGYIKKLEHHHHHH”, the “soluble on expression in E. coli” value is reported as “soluble”. In the case of “MSLKNIKSNLGDYATLVFDCDGVLLDSNKVKTQAFYEAALPYGEMAAQALADHHVANGGISRYKKFSYFLEHIVAQHAEGPSLEHLLDRYAENVSSGLLSCDIASGIRELRAKTPNTRWLIVSGGDQTELREVFAQRKLAEIFDGGIFGSPDAKEEIIARELRSSNIAPPALFIGDSKYDFKAASESNLDFLFLSDWSEVKNWQQWCNENNIYALGNISSLLETCTHPEEGHHHHHH”, the “soluble on expression in E. coli” value is reported as “soluble”. With “MAHLKKRNRLKKNEDFQKVFKHGTSVANRQFVLYTLDQPENDELRVGLSVSKKIGNAVMRNRIKRLIRQAFLEEKERLKEKDYIIIARKPASQLTYEETKKSLQHLFRKSSLYKKSSSK” the “soluble on expression in E. coli” value was “soluble”. With “MGHHHHHHSHMEKSELKPAGVFHFFNEICQVPRPSKKEEKMIAYLKAFGEKHNLETKVDEAGNVLIKKPATPGKENLKTVILQSHVDMVCEKNNDTDHDFLTDPIETEIDGEWMKAKGTTLGADNGIGVATELAILADDSIEHGPIECLFTVDEETGLTGAFALKEGFMSGEILLNLDSEDEGELYIGCAGGIDTVAEFQYENEMTPISHLCFRITVKGLKGGHSGGDIHLGRGNANKILNRFLYQMMTTYQEDFHLYEFNGGNLRNAIPREASAVFSVPEHYKHDIRTALNVFTAEIENELHRVEPDLNILLETEPHRDWSIDSSTSYRLITSLYGCPHGVYAMSQDIPGLVETSTNLASVKMKPENTIRIETSQRSSILSSRDDIATTVRAVFRLAGAQVNWGEGYPGWKPNPDSEILKVAEESYKRLFGVDAKVKAIHAGLECGLFLDKYPALDMISFGPTLTGVHSPDERMHIPSVDKFWKHLLDVLAHIPAKN” the “soluble on expression in E. coli” value was “soluble”. With “MAHHHHHHMTDTTKGALKRSNTLFLSDAEQFVFDFGGSAGGRAVSPGSSHGSGGQPGEGDGEKGIEETDLANGRTGVVTPFSERERTAPVAPLDAEEVQRYFDKALKGGRRILLENVPLDEAIEKFQLGLRRYEEWLCNQANSRNRGDSSKSRGDPLNEGYRGKPGDVARDAKDRKRPRL” the “soluble on expression in E. coli” value was “not soluble”. In the case of “MGSDKIHHHHHHMPTPTRWQEKLPEAATTYLEGRRLDEVECVISDLPGIARGKAVPASKFAKQDYFYLPDSIFYQTITGDWAEAADEDGWIEKDMLLRPDMSTATAAPWTGDWTLQVIHDAYDRDGNPIPFSPRNVLKHVVSLYEAQGWKPVVAPEMEFYLVARNVDPARDIQPMMGRSGRPAAARQAYSMTAVDEFGPVIDDIYDFAEAQGFEIDGITQEGGAGQLEINLRHGSPVKLADEVFYFKRLIREAALRHDCFATFMAKPIADEPGSAMHIHHSVIDIESGENIFSGPQGGETDAFYHFIGGLQNHLPAGLAVMAPYVNSYRRYVKNHAAPINLEWARDNRTTGIRVPLSSSASRRVENRIAGMDCNPYLGIAVSLACGYLGLMEERRPTRQFKGDAYEGEGDFPQVMGQALDLFDESKALHEVLGPEFARVYSTVKRAEYEEFLQVISPWEREHLLLNV”, the “soluble on expression in E. coli” value is reported as “not soluble”. In the case of “MSGFYNRGKMKFIHAADIHLGNPISGIDRKINLPEEVKKQIALATFTAFSNVIKLAVDRHVDFVLFPGDLFDSSQQSAYLYNFLNQQFQNLKEAGIEAFISFGNHDFQSDVENDFIWPENVHAFPKSKAKTFFHDSWDGKRVAITGTSFVVRNPRESLVPLYPSRDQSATYQIGMYHGSQGNSSANNYAPFSVGDLQALNYDYWALGHIHVRQVLSKNPAIVYSGDPQGLDLTETGEKGVYFVSDENDQGGLTAEFVPCSSFVFDSFELSINDQSAISNISDLIVQELLSFNHKKMSLNAIRVNLSASLPEKILDQLTDTSFLDLVNSKTIREKQFLIKMDLNVDQKKDNFNQLEERYWQAAKNDVFDEQSFNQALLRTFNSNQQFVIRHFTDPNVQAKLMSKAEQIISERIS”, the “soluble on expression in E. coli” value is reported as “not soluble”. With “MGGLDKMSVEKKLLLDVKDLKVHFNITPKSAWPWTKPVTLKAVDGVNVRLYEGETLGVVGESGCGKSTFARAIIGLVQATHGEVVWLGQDLTRMQEVKRRATRKQIQMIFQDPLASLNPRMTVGDIIAEPLQTFYPELSKQEVKDRVKEMMAKVGLLPNVINRYPHEFSGGQCQRIGIARALILKPKMIICDEPVSALDVSIQAQVVNLLKELQKELGLSLVFIAHDLSVVKHISDRVLVMYLGNAVELGVSKELFANPKHPYTKALMSAVPIPDPNIERNKTIQMLEGDLPSPMNPPSGCVFRTRCPQATAECAKTKPVIKGSDIHSVSCLYAEA” the “soluble on expression in E. coli” value was “not soluble”. In the case of “DNVKYVSSVQRDKELLHAKYGKDIDKAEDVAKEYPSLESIVAKHPDIFVAGWNYGFSEEKNLTPDALKDQGIDSYILSESCRQEGSEKRGLYDPWEAVKMDISNIGKITSHADTADSVVKDIDSRLETLKKAPQADKAPTAFVFDSGTDTVFTSGKFGAPQAIIEAAGGRNGAENVEDTWTTVSWENLAASKPDVFVFVDYPGQEFEEKIAALRSNPATKNLPAVKENRFINLPYAMWTSGPLNIDAAEQMRKGFEKFGLVPSSEIKPSLELPASVPGQNYYK”, the “soluble on expression in E. coli” value is reported as “not soluble”. With “MGSDKIHHHHHHMLEGIFDINHVFDEEGIKTLKRFGWDGSVAVQNHNEYSEEKINTAVEYGENCEFKVYSGVKISTKNQNEMEKAVKKYRNKVDILLVEGGDVKINRRVLEMNDVDILSTPELNRMDNGLDHILARLGSTNRVAVELNFGNLLKSKNYDRSKILWAFQRNLKLSKKYDTPVVISSGANDIYGIKAPGDLRGFLNTVADPLYSKKIIETTSKIIDYRLYLKNKNVLMPGLEIVEE” the “soluble on expression in E. coli” value was “not soluble”. In the case of “GAAASIQTTVNTLSERISSKLEQEANASAQTKCDIEIGNFYIRQNHGCNLTVKNMCSADADAQLDAVLSAATETYSGLTPEQKAYVPAMFTAALNIQTSVNTVVRDFENYVKQTCNSSAVVDNKLKIQNVIIDECYGAPGSPTNLEFINTGSSKGNCAIKALMQLTTKATTQIAPKQVAGTGVQ”, the “soluble on expression in E. coli” value is reported as “soluble”. With “MRSQDKYERFIQLLAHEFFHLWNVKRIRPQALEVFNYDQENYTPSLWFCEGTTSYYDLLIPLRAGIYDAKTYLNYWSKEISRLITTPGRKVQPLSESSFDAWIKLYRPDTNTGNSQVSYYLKGELEHHHHHH” the “soluble on expression in E. coli” value was “not soluble”. With “MQVEVGQIVNTHGIKGEVKVKSNSDFTDTRFQPGEVLTVNHQNHEEQLTVLSYRVHKGFHMLKFEGINNINDVEQYKGDYLYQERDHEDIELAENEYYYSDIIGSTVFDNDNQPIGRVINIFETGANDVWVVKGEKEYLIPYIADVVKEIDIENKTIRITPMEGLLDLEHHHHHH” the “soluble on expression in E. coli” value was “soluble”. With “MHHHHHHSSGVDLGTENLYFQSMEETEKWMEEAMHMAKEALENTEVPVGCLMVYNNEVVGKGRNEVNQTKNATRHAEMVAIDQVLDWCRQSGKSPSEVFEHTVLYVTVEPCIMCAAALRLMKIPLVVYGCQNERFGGCGSVLNIASADLPNTGRPFQCIPGYRAEEAVEMLKTFYKQENPNAPKSKVRK” the “soluble on expression in E. coli” value was “soluble”. With “MAGDPMATLTRLFIHPVKSMRGIGLTHALADVSGLAFDRIFMITEPDGTFITARQFPQMVRFTPSPVHDGLHLTAPDGSSAYVRFADFATQDAPTEVWGTHFTARIAPDAINKWLSGFFSREVQLRWVGPQMTRRVKRHNTVPLSFADGYPYLLANEASLRDLQQRCPASVKMEQFRPNLVVSGASAWEEDSWKVIRIGDVVFDVVKPCSRCIFTTVSPEKGQKHPAGEPLKTLQSFRTAQDNGDVDFGQNLIARNSGVIRVGDEVEILATAPAKIYGAAAADDTANITQQPDANVDIDWQGQAFRGNNQQVLLEQLENQGIRIPYSCRAGICGSCRVQLLEGEVTPLKKSAMGDDGTILCCSCVPKTALKLTRLEHHHHHH” the “soluble on expression in E. coli” value was “not soluble”.
